From the supplement of paper PMC10065799, “High-throughput profiling of sequence recognition by tyrosine kinases and SH2 domains using bacterial peptide display” (eLife, 2023)

Test system: c-Src
Assay: phosphorylation enrichment, bacterial display (enrichment ratio); higher = better substrate or ligand; peptides without Tyr show the background
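Further: 11-residue human phosphosite peptides and single-mutation variants displayed on the E. coli surface, counted by deep sequencing, each peptide's frequency after selection divided by its frequency in the unselected input library; frequency after pTyr selection over input frequency; kinase dosed for 20-30% of maximal phosphorylation in three min.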

Row | Sequence | phosphorylation enrichment
1 | VVAHQYSFAPD [TNS3_Y601] | 0.481
2 | GVSYIYTIDGS [DCX_Y105_R102S] | 4.85
3 | IDPYTYTPFGS [CYP3A4_Y432_I431T] | 6.82
4 | IDPFTYTPFGS [CYP3A4_Y432_I431T_YF] | 2.88
5 | FDKEFYSVHNK [MET_Y1235_YF] | 0.641
6 | QTSTDYDIRFY [CSNK2A1_Y131_L128S] | 0.785
7 | AVLSLYASDRT [ACTA1_Y145_G148D] | 0.465
8 | QMVGMYASSFM [AVPR2_Y124_YF] | 1.6
9 | EEVGIYRMSGV [BCR_Y1089_V1091M] | 6.23
10 | DNPAKYFILEN [DPP10_Y512_S517N] | 0.495
11 | RDLTDYLMKIL [ACTA1_Y190] | 0.613
12 | LIFVSYDDWDF [GRIN2A_Y281_S278F_YF] | 1.79
13 | PPPPAYDDVAQ [TNK2_Y635] | 0.622
14 | KDHPDYKFQLR [SOX10_Y171_P175L_YF] | 0.512
15 | SSMSDYNPLEK [MYOC_Y479_I477S] | 0.439
16 | SIKDKYVMALY [KCNH2_Y611_T613M] | 0.422
17 | EWRSPYGLTPR [GRIN3B_Y601] | 1.28

Row | Sequence | phosphorylation enrichment
18 | QEKKGYFEDRR [GLUL_Y336] | 0.469
19 | YRVAGYETQGG [TIA1_Y383] | 0.295
20 | HNQDGYSFPSR [LDLR_Y845_YF] | 1.02
21 | LTSVKYLLSAT [GSDMC_Y26_P23S] | 0.393
22 | ITQRAYRRHLL [SCN1A_Y1926_I1922T] | 0.622
23 | IVKAFYVHARA [AIPL1_Y268_R270H_YF] | 0.41
24 | RKPDIYERLAS [MCM4_Y459] | 2.04
25 | ENQEIYRKAFD [KPNA1_Y493_Q494R] | 0.451
26 | HHTNEYEYDEL [TGM1_Y134_D132N] | 0.901
27 | NQILPYIEELV [PPP2R1B_Y341_K343E] | 0.507
28 | LKRIAYFLCLL [LGI1_Y21] | 0.484
29 | KIKGRYEKCEP [KRT26_Y119_W118R] | 0.579
30 | GAAMLYFPSVS [GPR143_Y177_YF] | 0.56
31 | SVTCTYSPGLN [TP53_Y126_A129G] | 0.612
32 | RPFSPYIIRGM [LRP5_Y1531_R1529S_YF] | 0.886
33 | EDDIIYTQDFM [STK11_Y362_T367M] | 1.1

Molecular target: FGFR1 (UniProt P11362)
Sequence (P11362 whole entry, looked up): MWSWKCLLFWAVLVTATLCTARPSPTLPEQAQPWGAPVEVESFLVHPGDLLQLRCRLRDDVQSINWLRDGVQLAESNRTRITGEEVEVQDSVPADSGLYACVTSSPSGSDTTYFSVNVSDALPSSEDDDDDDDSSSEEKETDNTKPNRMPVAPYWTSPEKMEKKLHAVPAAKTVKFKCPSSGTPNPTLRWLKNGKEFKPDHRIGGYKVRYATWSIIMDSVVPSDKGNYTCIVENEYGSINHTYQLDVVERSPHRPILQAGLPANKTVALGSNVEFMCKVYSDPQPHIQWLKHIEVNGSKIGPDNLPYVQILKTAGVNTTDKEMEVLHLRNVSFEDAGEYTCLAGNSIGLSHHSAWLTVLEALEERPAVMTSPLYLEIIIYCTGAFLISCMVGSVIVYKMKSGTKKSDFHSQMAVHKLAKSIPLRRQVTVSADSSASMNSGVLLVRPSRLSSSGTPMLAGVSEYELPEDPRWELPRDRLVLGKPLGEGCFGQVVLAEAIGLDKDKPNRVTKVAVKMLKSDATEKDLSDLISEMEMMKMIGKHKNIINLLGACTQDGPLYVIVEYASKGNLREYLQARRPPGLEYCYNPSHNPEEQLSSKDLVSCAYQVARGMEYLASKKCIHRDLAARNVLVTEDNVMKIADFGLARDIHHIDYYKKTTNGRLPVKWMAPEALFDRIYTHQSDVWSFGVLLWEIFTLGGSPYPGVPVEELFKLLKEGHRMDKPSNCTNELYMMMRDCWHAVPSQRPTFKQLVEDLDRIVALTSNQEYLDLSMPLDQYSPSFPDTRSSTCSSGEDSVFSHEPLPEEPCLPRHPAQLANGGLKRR
Assay: as above

Row | Sequence | phosphorylation enrichment
34 | VVAHQYSFAPD [TNS3_Y601] | 0.74
35 | GVSYIYTIDGS [DCX_Y105_R102S] | 0.494
36 | IDPYTYTPFGS [CYP3A4_Y432_I431T] | 3.24
37 | IDPFTYTPFGS [CYP3A4_Y432_I431T_YF] | 0.486
38 | FDKEFYSVHNK [MET_Y1235_YF] | 0.528
39 | QTSTDYDIRFY [CSNK2A1_Y131_L128S] | 1.08
40 | AVLSLYASDRT [ACTA1_Y145_G148D] | 0.476
41 | QMVGMYASSFM [AVPR2_Y124_YF] | 0.73
42 | EEVGIYRMSGV [BCR_Y1089_V1091M] | 0.556
43 | DNPAKYFILEN [DPP10_Y512_S517N] | 0.557
44 | RDLTDYLMKIL [ACTA1_Y190] | 0.539
45 | LIFVSYDDWDF [GRIN2A_Y281_S278F_YF] | 1.38
46 | PPPPAYDDVAQ [TNK2_Y635] | 0.467
47 | KDHPDYKFQLR [SOX10_Y171_P175L_YF] | 0.478
48 | SSMSDYNPLEK [MYOC_Y479_I477S] | 0.506
49 | SIKDKYVMALY [KCNH2_Y611_T613M] | 0.638
50 | EWRSPYGLTPR [GRIN3B_Y601] | 0.403

Row | Sequence | phosphorylation enrichment
51 | QEKKGYFEDRR [GLUL_Y336] | 0.682
52 | YRVAGYETQGG [TIA1_Y383] | 0.399
53 | HNQDGYSFPSR [LDLR_Y845_YF] | 0.906
54 | LTSVKYLLSAT [GSDMC_Y26_P23S] | 0.482
55 | ITQRAYRRHLL [SCN1A_Y1926_I1922T] | 0.442
56 | IVKAFYVHARA [AIPL1_Y268_R270H_YF] | 0.479
57 | RKPDIYERLAS [MCM4_Y459] | 0.671
58 | ENQEIYRKAFD [KPNA1_Y493_Q494R] | 0.537
59 | HHTNEYEYDEL [TGM1_Y134_D132N] | 0.69
60 | NQILPYIEELV [PPP2R1B_Y341_K343E] | 0.533
61 | LKRIAYFLCLL [LGI1_Y21] | 0.696
62 | KIKGRYEKCEP [KRT26_Y119_W118R] | 0.562
63 | GAAMLYFPSVS [GPR143_Y177_YF] | 0.66
64 | SVTCTYSPGLN [TP53_Y126_A129G] | 0.511
65 | RPFSPYIIRGM [LRP5_Y1531_R1529S_YF] | 0.785
66 | EDDIIYTQDFM [STK11_Y362_T367M] | 0.911

Test system: c-Abl (mouse)
Assay: as above

Row | Sequence | phosphorylation enrichment
67 | VVAHQYSFAPD [TNS3_Y601] | 0.504
68 | GVSYIYTIDGS [DCX_Y105_R102S] | 0.663
69 | IDPYTYTPFGS [CYP3A4_Y432_I431T] | 0.63
70 | IDPFTYTPFGS [CYP3A4_Y432_I431T_YF] | 0.581
71 | FDKEFYSVHNK [MET_Y1235_YF] | 0.959
72 | QTSTDYDIRFY [CSNK2A1_Y131_L128S] | 1.2
73 | AVLSLYASDRT [ACTA1_Y145_G148D] | 0.893
74 | QMVGMYASSFM [AVPR2_Y124_YF] | 1.48
75 | EEVGIYRMSGV [BCR_Y1089_V1091M] | 9.58
76 | DNPAKYFILEN [DPP10_Y512_S517N] | 0.935
77 | RDLTDYLMKIL [ACTA1_Y190] | 0.791
78 | LIFVSYDDWDF [GRIN2A_Y281_S278F_YF] | 2.77
79 | PPPPAYDDVAQ [TNK2_Y635] | 0.806
80 | KDHPDYKFQLR [SOX10_Y171_P175L_YF] | 0.512
81 | SSMSDYNPLEK [MYOC_Y479_I477S] | 0.657
82 | SIKDKYVMALY [KCNH2_Y611_T613M] | 0.599
83 | EWRSPYGLTPR [GRIN3B_Y601] | 0.486

Row | Sequence | phosphorylation enrichment
84 | QEKKGYFEDRR [GLUL_Y336] | 1.2
85 | YRVAGYETQGG [TIA1_Y383] | 0.906
86 | HNQDGYSFPSR [LDLR_Y845_YF] | 1.31
87 | LTSVKYLLSAT [GSDMC_Y26_P23S] | 0.437
88 | ITQRAYRRHLL [SCN1A_Y1926_I1922T] | 0.547
89 | IVKAFYVHARA [AIPL1_Y268_R270H_YF] | 0.718
90 | RKPDIYERLAS [MCM4_Y459] | 0.901
91 | ENQEIYRKAFD [KPNA1_Y493_Q494R] | 0.812
92 | HHTNEYEYDEL [TGM1_Y134_D132N] | 1.58
93 | NQILPYIEELV [PPP2R1B_Y341_K343E] | 0.875
94 | LKRIAYFLCLL [LGI1_Y21] | 0.821
95 | KIKGRYEKCEP [KRT26_Y119_W118R] | 1.25
96 | GAAMLYFPSVS [GPR143_Y177_YF] | 0.535
97 | SVTCTYSPGLN [TP53_Y126_A129G] | 1.05
98 | RPFSPYIIRGM [LRP5_Y1531_R1529S_YF] | 0.595
99 | EDDIIYTQDFM [STK11_Y362_T367M] | 0.889

Test system: Fer (mouse)
Assay: as above

Row | Sequence | phosphorylation enrichment
100 | VVAHQYSFAPD [TNS3_Y601] | 0.401
101 | GVSYIYTIDGS [DCX_Y105_R102S] | 0.412
102 | IDPYTYTPFGS [CYP3A4_Y432_I431T] | 0.698
103 | IDPFTYTPFGS [CYP3A4_Y432_I431T_YF] | 0.587
104 | FDKEFYSVHNK [MET_Y1235_YF] | 0.561
105 | QTSTDYDIRFY [CSNK2A1_Y131_L128S] | 0.844
106 | AVLSLYASDRT [ACTA1_Y145_G148D] | 0.515
107 | QMVGMYASSFM [AVPR2_Y124_YF] | 0.904
108 | EEVGIYRMSGV [BCR_Y1089_V1091M] | 0.535
109 | DNPAKYFILEN [DPP10_Y512_S517N] | 0.531
110 | RDLTDYLMKIL [ACTA1_Y190] | 0.581
111 | LIFVSYDDWDF [GRIN2A_Y281_S278F_YF] | 17.4
112 | PPPPAYDDVAQ [TNK2_Y635] | 0.547
113 | KDHPDYKFQLR [SOX10_Y171_P175L_YF] | 0.65
114 | SSMSDYNPLEK [MYOC_Y479_I477S] | 0.558
115 | SIKDKYVMALY [KCNH2_Y611_T613M] | 0.45
116 | EWRSPYGLTPR [GRIN3B_Y601] | 0.434

Row | Sequence | phosphorylation enrichment
117 | QEKKGYFEDRR [GLUL_Y336] | 0.821
118 | YRVAGYETQGG [TIA1_Y383] | 0.351
119 | HNQDGYSFPSR [LDLR_Y845_YF] | 0.871
120 | LTSVKYLLSAT [GSDMC_Y26_P23S] | 0.406
121 | ITQRAYRRHLL [SCN1A_Y1926_I1922T] | 0.403
122 | IVKAFYVHARA [AIPL1_Y268_R270H_YF] | 0.559
123 | RKPDIYERLAS [MCM4_Y459] | 0.943
124 | ENQEIYRKAFD [KPNA1_Y493_Q494R] | 0.55
125 | HHTNEYEYDEL [TGM1_Y134_D132N] | 0.736
126 | NQILPYIEELV [PPP2R1B_Y341_K343E] | 0.931
127 | LKRIAYFLCLL [LGI1_Y21] | 0.714
128 | KIKGRYEKCEP [KRT26_Y119_W118R] | 0.584
129 | GAAMLYFPSVS [GPR143_Y177_YF] | 0.437
130 | SVTCTYSPGLN [TP53_Y126_A129G] | 0.609
131 | RPFSPYIIRGM [LRP5_Y1531_R1529S_YF] | 0.494
132 | EDDIIYTQDFM [STK11_Y362_T367M] | 0.776
